# PMC2878922 (2011)
# T1: CD47 ECD (Mus musculus, UniProt Q61735)
# T1 chain: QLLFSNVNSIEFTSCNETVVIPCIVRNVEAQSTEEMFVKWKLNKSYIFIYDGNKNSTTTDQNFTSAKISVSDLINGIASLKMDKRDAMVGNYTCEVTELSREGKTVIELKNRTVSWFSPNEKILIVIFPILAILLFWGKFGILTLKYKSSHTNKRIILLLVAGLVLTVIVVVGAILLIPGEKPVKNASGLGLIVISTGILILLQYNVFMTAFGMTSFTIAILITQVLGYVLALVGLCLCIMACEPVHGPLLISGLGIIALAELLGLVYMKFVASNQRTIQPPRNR
# Columns and labels:
# [1] = molecular target: CD47 ECD (Homo sapiens, UniProt Q08722); assay: flow cytometry saturation binding on CD47-coated beads
# Chain of CD47 ECD (Homo sapiens, UniProt Q08722) (Q08722 19-323): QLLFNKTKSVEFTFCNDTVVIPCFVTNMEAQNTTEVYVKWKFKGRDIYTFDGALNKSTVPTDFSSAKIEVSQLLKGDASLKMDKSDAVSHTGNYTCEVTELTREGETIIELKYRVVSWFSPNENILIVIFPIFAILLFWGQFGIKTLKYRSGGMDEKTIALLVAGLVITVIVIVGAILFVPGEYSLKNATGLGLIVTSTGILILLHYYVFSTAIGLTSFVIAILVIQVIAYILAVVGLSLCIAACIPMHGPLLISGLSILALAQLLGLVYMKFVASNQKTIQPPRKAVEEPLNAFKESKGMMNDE
# [2] = molecular target: T1, CD47 ECD; assay: as above
binder,measurement,setting,value
"SIRPα (variant 129_IgV, GST fusion) ECD (protein) KELKVTQPEKSVSVAAGDSTVLNCTLTSLLPVGPIRWYRGVGPSRLLIYSFAGEYVPRIRNVSDTTKRNNMDFSIRISNVTPADAGIYYCVKFQKGSSEPDTEIQSGGGTEVYVLAKPSPPEVSGPADRGIPDQKVNFTCKSHGFSPRNITLKWFKDGQELHPLETTVNPSGKNVSYNISSTVRVVLNSMDVNSKVICEVAHITLDRSPLRGIANLSNFIRVSPTVKVTQQSPTSMNQVNLTCRAERFYPEDLQLIWLENGNVSRNDTPKNLTKNTDGTYNYTSLFLVNSSAHREDVVFTCQVKHDQQPAITRNHTVLGFAHSSDQGSMQTFPDNNATHNWN",Kd,[1],220 nM
same,Kd,[2],220 nM
